Experiments:
Assay in all cases: holdup assay
Set-up in all cases: key: below the threshold = too weak to quantify, mostly under pKd 3.1 to 4
[1] = target: T1, RAPGEF6, Q8TEU7
T1 sequence (Q8TEU7 525-625, limits assumed, looked up): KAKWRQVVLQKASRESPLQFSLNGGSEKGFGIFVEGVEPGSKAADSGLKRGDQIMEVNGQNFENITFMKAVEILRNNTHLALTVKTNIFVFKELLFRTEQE

[2] = target: PICK1, Q9NRD5
[3] = target: T2, SNTG2, Q9NY99
T2 sequence (Q9NY99 68-166, limits assumed, looked up): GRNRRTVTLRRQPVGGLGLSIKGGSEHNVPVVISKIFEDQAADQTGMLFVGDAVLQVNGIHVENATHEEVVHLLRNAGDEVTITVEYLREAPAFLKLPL

[4] = target: T3, DLG3_2, Q92796
T3 sequence (Q92796 221-321, limits assumed, looked up): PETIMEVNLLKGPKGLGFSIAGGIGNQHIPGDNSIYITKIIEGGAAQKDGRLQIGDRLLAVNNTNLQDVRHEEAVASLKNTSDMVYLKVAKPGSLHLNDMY

[5] = target: IL16_3, Q14005
IL16_3, Q14005, sequence (Q14005 1107-1207): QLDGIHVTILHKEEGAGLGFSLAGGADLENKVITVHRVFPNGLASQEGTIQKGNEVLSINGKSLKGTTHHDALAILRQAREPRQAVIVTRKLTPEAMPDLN

[6] = target: Inadl_9, Q8NI35
Inadl_9, Q8NI35, sequence (Q8NI35 1530-1615): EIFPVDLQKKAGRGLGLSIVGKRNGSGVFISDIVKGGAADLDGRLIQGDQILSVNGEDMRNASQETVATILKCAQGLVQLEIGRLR

[7] = target: HTRA1, Q92743
HTRA1, Q92743, sequence (Q92743 360-477): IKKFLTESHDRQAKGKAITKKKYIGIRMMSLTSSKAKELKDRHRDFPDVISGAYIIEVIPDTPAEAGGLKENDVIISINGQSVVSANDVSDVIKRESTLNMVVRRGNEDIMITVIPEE

[8] = target: FRMPD4, Q14CM0
FRMPD4, Q14CM0, sequence (Q14CM0 67-160): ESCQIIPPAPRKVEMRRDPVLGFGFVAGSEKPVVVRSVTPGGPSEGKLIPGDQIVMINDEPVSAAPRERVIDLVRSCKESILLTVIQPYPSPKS

[9] = target: NHERF2_2, Q15599
NHERF2_2, Q15599, sequence (Q15599 142-238): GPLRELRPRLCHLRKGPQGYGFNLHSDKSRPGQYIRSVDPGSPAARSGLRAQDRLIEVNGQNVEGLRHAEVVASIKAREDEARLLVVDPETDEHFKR

[10] = target: T4, NHERF3_4, Q5T2W1
T4 sequence (Q5T2W1 373-468, limits assumed, looked up): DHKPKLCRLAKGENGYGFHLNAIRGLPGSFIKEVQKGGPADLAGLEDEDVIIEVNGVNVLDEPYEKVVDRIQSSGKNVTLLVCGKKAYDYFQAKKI

[11] = target: MAGI2_5, Q86UL8
MAGI2_5, Q86UL8, sequence (Q86UL8 915-1017): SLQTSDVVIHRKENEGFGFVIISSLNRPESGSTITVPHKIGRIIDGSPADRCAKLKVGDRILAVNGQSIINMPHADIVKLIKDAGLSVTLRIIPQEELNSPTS

[12] = target: DLG4_1, P78352
DLG4_1, P78352, sequence (P78352 62-152): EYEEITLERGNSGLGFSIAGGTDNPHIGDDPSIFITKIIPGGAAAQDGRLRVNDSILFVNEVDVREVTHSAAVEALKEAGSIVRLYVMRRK

[13] = target: Inadl_3, Q8NI35
Inadl_3, Q8NI35, sequence (Q8NI35 359-469): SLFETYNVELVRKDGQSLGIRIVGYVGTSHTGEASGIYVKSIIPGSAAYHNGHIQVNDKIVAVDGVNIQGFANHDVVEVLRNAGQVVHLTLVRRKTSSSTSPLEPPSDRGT

[14] = target: MAST1, Q9Y2H9
MAST1, Q9Y2H9, sequence (Q9Y2H9 962-1065): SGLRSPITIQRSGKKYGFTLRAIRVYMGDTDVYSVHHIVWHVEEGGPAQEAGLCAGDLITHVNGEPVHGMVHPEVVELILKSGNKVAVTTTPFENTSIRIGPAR

[15] = target: T5, HTRA4, P83105
T5 sequence (P83105 378-476, limits assumed, looked up): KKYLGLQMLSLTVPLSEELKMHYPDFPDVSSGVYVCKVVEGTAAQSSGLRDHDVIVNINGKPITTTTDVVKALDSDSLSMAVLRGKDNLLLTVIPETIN

[16] = target: GRIP2_7, Q9C0E4
GRIP2_7, Q9C0E4, sequence (Q9C0E4 934-1023): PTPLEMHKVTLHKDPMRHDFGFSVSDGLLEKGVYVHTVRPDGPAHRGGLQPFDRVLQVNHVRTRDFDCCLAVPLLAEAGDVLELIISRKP

[17] = target: T6, LIN7A, O14910
T6 sequence (O14910 103-200, limits assumed, looked up): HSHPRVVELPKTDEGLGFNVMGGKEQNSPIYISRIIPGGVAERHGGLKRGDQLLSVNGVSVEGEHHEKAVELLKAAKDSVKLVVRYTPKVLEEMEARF

[18] = target: T7, MPP7, Q5T2T1
T7 sequence (Q5T2T1 134-230, limits assumed, looked up): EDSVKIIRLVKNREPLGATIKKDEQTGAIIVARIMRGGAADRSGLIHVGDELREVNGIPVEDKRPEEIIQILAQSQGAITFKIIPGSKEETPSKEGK

[19] = target: LNX1_1, Q8TBB1
LNX1_1, Q8TBB1, sequence (Q8TBB1 261-371): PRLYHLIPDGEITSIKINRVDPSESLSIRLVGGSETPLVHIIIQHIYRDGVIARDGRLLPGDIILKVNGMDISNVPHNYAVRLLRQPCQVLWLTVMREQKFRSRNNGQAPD

[20] = target: T8, PARD3B_1, Q8TEW8
T8 sequence (Q8TEW8 196-299, limits assumed, looked up): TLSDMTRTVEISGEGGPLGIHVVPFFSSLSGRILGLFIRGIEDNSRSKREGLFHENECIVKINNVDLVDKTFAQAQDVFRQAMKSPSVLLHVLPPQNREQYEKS

[21] = target: SCRIB_3, Q14160
SCRIB_3, Q14160, sequence (Q14160 999-1103): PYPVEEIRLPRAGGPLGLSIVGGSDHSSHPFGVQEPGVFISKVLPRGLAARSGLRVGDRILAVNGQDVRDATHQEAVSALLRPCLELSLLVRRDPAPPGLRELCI

[22] = target: MAGI1_2, Q96QZ7
MAGI1_2, Q96QZ7, sequence (Q96QZ7 456-580): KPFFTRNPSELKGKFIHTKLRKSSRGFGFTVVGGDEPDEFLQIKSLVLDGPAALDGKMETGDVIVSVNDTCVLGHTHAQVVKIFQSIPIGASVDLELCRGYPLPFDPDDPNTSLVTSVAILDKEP

[23] = target: NHERF4_2, Q86UT5
NHERF4_2, Q86UT5, sequence (Q86UT5 220-308): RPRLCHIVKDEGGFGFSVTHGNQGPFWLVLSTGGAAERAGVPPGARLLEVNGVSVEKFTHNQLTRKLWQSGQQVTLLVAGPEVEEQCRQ

[24] = target: LIMK2, P53671
LIMK2, P53671, sequence (P53671 143-248): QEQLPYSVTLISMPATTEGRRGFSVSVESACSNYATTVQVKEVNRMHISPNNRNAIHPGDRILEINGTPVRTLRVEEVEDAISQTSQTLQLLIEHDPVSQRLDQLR

[25] = target: MAGI2_3, Q86UL8
MAGI2_3, Q86UL8, sequence (Q86UL8 600-682): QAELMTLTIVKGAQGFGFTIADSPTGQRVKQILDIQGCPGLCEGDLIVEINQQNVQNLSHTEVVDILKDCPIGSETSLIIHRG

[26] = target: T9, SNTG1, Q9NSN8
T9 sequence (Q9NSN8 52-150, limits assumed, looked up): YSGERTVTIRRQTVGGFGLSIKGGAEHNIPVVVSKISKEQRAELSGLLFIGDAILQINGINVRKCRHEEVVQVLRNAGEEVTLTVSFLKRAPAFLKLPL

[27] = target: T10, PDZRN3_1, Q9UPQ7
T10 sequence (Q9UPQ7 244-349, limits assumed, looked up): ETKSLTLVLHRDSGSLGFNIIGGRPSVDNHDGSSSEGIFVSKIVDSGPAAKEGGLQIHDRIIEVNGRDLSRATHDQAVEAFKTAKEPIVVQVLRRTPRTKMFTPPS

[28] = plain residues with an end cap or a label only (N-terminal biotin on a linker: ttds)
[29] = plain residues with an end cap or a label only (N-terminal biotin on a linker: ado-ado)

PICK1, Q9NRD5, sequence (Q9NRD5 17-115): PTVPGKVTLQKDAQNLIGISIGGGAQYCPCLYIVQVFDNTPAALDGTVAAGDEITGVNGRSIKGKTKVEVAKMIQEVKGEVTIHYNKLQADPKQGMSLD

B1: AGMAT, Q9BSE5 (peptide)
chain: LCALPKVTTV
**Q.** Which results are given for B1?
**A.** pKd [1, 28]: 3.63; pKd [2, 28]: below the threshold; pKd [3, 28]: 4.24; pKd [4, 28]: 5.31; pKd [5, 28]: below the threshold; pKd [6, 28]: 3.52; pKd [7, 28]: 4.75; pKd [8, 28]: below the threshold; pKd [9, 28]: below the threshold; pKd [10, 28]: 3.51; pKd [11, 28]: 3.63; pKd [12, 28]: 4.69; pKd [13, 28]: 3.54; pKd [14, 28]: 3.88; pKd [15, 28]: 4.66; pKd [16, 28]: below the threshold; pKd [17, 28]: 3.64; pKd [18, 28]: below the threshold; pKd [19, 28]: 3.98; pKd [20, 28]: below the threshold; pKd [21, 28]: 4.24; pKd [22, 28]: 4.1; pKd [23, 28]: below the threshold; pKd [24, 28]: below the threshold; pKd [25, 28]: 4.4; pKd [26, 28]: 4.39; pKd [27, 28]: below the threshold

B2: PRKCA, P17252 (peptide)
chain: FVHPILQSAV
**Q.** B2 was tested. Which pKd [1, 29] did it give?
**A.** The pKd was “below the threshold”.

**Q.** And the pKd [2, 29]?
**A.** The pKd was “below the threshold”.

**Q.** What about the pKd [3, 29] of the same binder?
**A.** Its pKd is 3.64.

**Q.** What about the pKd [4, 29] of the same binder?
**A.** Its pKd is 4.26.

**Q.** And the pKd [5, 29]?
**A.** The pKd was “below the threshold”.

**Q.** And the pKd [6, 29]?
**A.** Its pKd is “below the threshold”.

**Q.** And the pKd [7, 29]?
**A.** The pKd was “below the threshold”.

**Q.** What about the pKd [8, 29] of the same binder?
**A.** Its pKd is “below the threshold”.

**Q.** And the pKd [9, 29]?
**A.** The pKd was “below the threshold”.

**Q.** What about the pKd [10, 29] of the same binder?
**A.** The pKd was “below the threshold”.

**Q.** What about the pKd [11, 29] of the same binder?
**A.** Its pKd is 4.73.

**Q.** And the pKd [12, 29]?
**A.** The pKd was 4.07.

**Q.** And the pKd [13, 29]?
**A.** Its pKd is “below the threshold”.

**Q.** And the pKd [14, 29]?
**A.** Its pKd is 4.23.

**Q.** And the pKd [15, 29]?
**A.** Its pKd is “below the threshold”.

**Q.** What about the pKd [16, 29] of the same binder?
**A.** Its pKd is “below the threshold”.

**Q.** What about the pKd [17, 29] of the same binder?
**A.** The pKd was “below the threshold”.

**Q.** What about the pKd [18, 29] of the same binder?
**A.** The pKd was “below the threshold”.

**Q.** What about the pKd [19, 29] of the same binder?
**A.** The pKd was 4.02.

**Q.** And the pKd [20, 29]?
**A.** The pKd was “below the threshold”.

**Q.** And the pKd [21, 29]?
**A.** The pKd was 4.3.

**Q.** What about the pKd [22, 29] of the same binder?
**A.** Its pKd is 3.73.

**Q.** What about the pKd [23, 29] of the same binder?
**A.** Its pKd is “below the threshold”.

**Q.** And the pKd [24, 29]?
**A.** The pKd was “below the threshold”.

**Q.** And the pKd [25, 29]?
**A.** Its pKd is 3.83.

**Q.** And the pKd [26, 29]?
**A.** The pKd was 4.35.

**Q.** What about the pKd [27, 29] of the same binder?
**A.** Its pKd is 4.21.

B3: TAGAP, Q8N103 (peptide)
chain: QFQYAKESYI
**Q.** What does the source list for B3?
**A.** pKd [1, 28]: below the threshold; pKd [2, 28]: below the threshold; pKd [3, 28]: 4.42; pKd [4, 28]: 4.15; pKd [5, 28]: below the threshold; pKd [6, 28]: 3.5; pKd [7, 28]: 4.03; pKd [8, 28]: below the threshold; pKd [9, 28]: below the threshold; pKd [10, 28]: below the threshold; pKd [11, 28]: below the threshold; pKd [12, 28]: 3.9; pKd [13, 28]: below the threshold; pKd [14, 28]: 3.54; pKd [15, 28]: below the threshold; pKd [16, 28]: below the threshold; pKd [17, 28]: below the threshold; pKd [18, 28]: below the threshold; pKd [19, 28]: 3.66; pKd [20, 28]: 3.98; pKd [21, 28]: 4.67; pKd [22, 28]: below the threshold; pKd [23, 28]: below the threshold; pKd [24, 28]: below the threshold; pKd [25, 28]: below the threshold; pKd [26, 28]: 4.53; pKd [27, 28]: 4.18

B4: HPV31-E6, P17386 (peptide)
chain: SRRPRTETQV
**Q.** What does the source list for B4?
**A.** pKd [1, 28]: below the threshold; pKd [2, 28]: below the threshold; pKd [3, 28]: 4.08; pKd [4, 28]: 5.41; pKd [5, 28]: below the threshold; pKd [6, 28]: below the threshold; pKd [7, 28]: below the threshold; pKd [8, 28]: below the threshold; pKd [9, 28]: below the threshold; pKd [10, 28]: below the threshold; pKd [11, 28]: 3.89; pKd [12, 28]: 5.02; pKd [13, 28]: below the threshold; pKd [14, 28]: 4.42; pKd [15, 28]: below the threshold; pKd [16, 28]: below the threshold; pKd [17, 28]: 3.51; pKd [18, 28]: below the threshold; pKd [19, 28]: below the threshold; pKd [20, 28]: below the threshold; pKd [21, 28]: 4.56; pKd [22, 28]: 5.54; pKd [23, 28]: below the threshold; pKd [24, 28]: below the threshold; pKd [25, 28]: 4.1; pKd [26, 28]: 4.23; pKd [27, 28]: 4.09

From paper PMC9482650, “Quantitative fragmentomics allow affinity mapping of interactomes” (Nature Communications, 2022)
